The values that follow come from publication PMC7970865.

Several values for one entry are separate records, joined by “and”; a condition that tells them apart may be missing. Equal values may be shown once.

Assay [1] deals with nearly full-length recombinant FL-CSP (Plasmodium falciparum) (UniProt Q7K740). Description: BLI; Octet RED96; biotinylated FL-CSP or biotinylated NANPx6 on streptavidin biosensors, Fab in solution, kinetics buffer; global fit to 1:1 Langmuir model. In general terms: Biolayer interferometry detects binding as a change in optical thickness at a sensor tip.
For assay [2] the target is unchanged. Description: BLI; Octet RED384; FL-CSP amine-coupled to AR2G biosensors, bivalent mAb in solution, 1x kinetics buffer, 25 °C; 1:1 Langmuir model; mean of quadruplicate measurements.
Assay [3] shares this target. Description: ELISA. (In an ELISA, binding on a coated surface is turned into a signal by an enzyme label.)
Assay [4] deals with nearly full-length recombinant P. falciparum circumsporozoite protein (FL-CSP) (Plasmodium falciparum) (UniProt Q7K740). Put plainly: BLI.

Take Fab CIS43: in assay [1], the Kd was 2 nM; the koff (in general, the rate constant with which the complex falls apart) is 4.8e-05 s⁻¹; the kon (commonly the rate constant with which the complex forms) was determined as 28000 M⁻¹ s⁻¹.

As for mAb CIS43 (antibody), in assay [2], the Kd amounted to 0.46 nM, the koff was 0.000692 s⁻¹ and the kon was 1.5e+06 M⁻¹ s⁻¹. Besides, the ng/ml mAb needed for OD = 1 in assay [3] is below 6 ng/mL.

With “mAb CIS43 (intact human IgG1) (antibody)”, in assay [4], the kon was 1.4e+06 1/(M s) (2×) and 1.7e+06 1/(M s) and 1.6e+06 1/(M s).
